Measured values published in patent US20240010730A1 (SHANGHAI HUAOTA BIOPHARMACEUTICAL, published 2024).
Where two headings read alike, the source gives them in different places. Each block holds one binder with its values, some of them ahead of it.

Experiments:
[1] = molecular target: T1, human TIGIT on CHOK1-huTIGIT-2A3 cells (human, UniProt Q495A1 22-244); assay: flow cytometry on CHOK1-huTIGIT-2A3 cells
T1 construct: whole, on cells; also called cells expressing the human TIGIT
T1 sequence (looked up): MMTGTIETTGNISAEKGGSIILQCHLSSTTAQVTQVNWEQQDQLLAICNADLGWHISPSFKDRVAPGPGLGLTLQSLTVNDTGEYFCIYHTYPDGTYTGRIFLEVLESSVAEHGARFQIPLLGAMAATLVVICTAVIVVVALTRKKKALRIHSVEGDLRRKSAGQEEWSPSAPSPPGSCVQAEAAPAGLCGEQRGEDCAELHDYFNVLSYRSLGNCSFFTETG
Method: All chimeric antibodies and humanized antibodies were diluted to 20 μg/ml with 1% BSA in PBS solution (1% BSA/PBS), were added to a 96-well U-shaped plate at 20 μL per well; and a negative control (with 1% BSA/PBS added only) was set up at the same time. The suspension of cells (CHOK1-huTIGIT-2A3, Huabo Biopharm) expressing human TIGIT during the logarithmic growth phase were centrifuged (1000 rpm×5 min) to discard the culture medium; and the cells were resuspended with 1% BSA/PBS until the density of viable cells was 1×10⁶/mL, and were added, at 20 μL (2×10⁴ cells) per well, to the 96-well U-shaped plate with the anti-TIGIT antibody to react for 30 min at room temperature. After reaction, the 96-well U-shaped plate was resuspended with 1% BSA/PBS, centrifuged (300 g×3 min) to discard the supernatant, and washed once in such a way; and PE-goat anti-human-Fc (Jackson ImmunoResearch, #109-115-098) diluted at 1:200 was added to react for 15 min in the dark at room temperature. After reaction, the 96-well U-shaped plate was resuspended with 1% BSA/PBS, centrifuged (300 g×3 min) to discard the supernatant, washed three times in such a way, and finally resuspended with 100 μL of 1% BSA/PBS for each wall; and the fluorescence intensity of a PE channel was detected with a flow cytometer (BD, #CantoII).

[2] = molecular target: T2, Human TIGIT (SPR analyte, Example 7) (human, UniProt Q495A1 22-141, limits assumed); assay: SPR (Biacore 8K), antibody captured by anti-human chip, antigen analyte, 1:1 model
T2 sequence (looked up): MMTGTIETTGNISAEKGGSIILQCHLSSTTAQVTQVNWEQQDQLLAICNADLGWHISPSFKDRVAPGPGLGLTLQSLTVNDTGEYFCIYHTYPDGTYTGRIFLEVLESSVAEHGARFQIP
Method: (§1) The Anti-Human Capture-CMS chip (GE, #BR-1005-30) was prepared according to the method for conjugating the Human Antibody Capture Kit (GE, #BR-1008-39) to the Amino Conjugation Kit (GE, BR-1000-50).

[3] = molecular target: TIGIT on Jurkat-TIGIT-22G8 cells; assay: cell-based or functional assay
[4] = molecular target: T3, histidine-tagged (His-Tag) human TIGIT protein (huTIGIT, ACRO Biosystems, #TIT-H52H3) (human, UniProt Q495A1 22-141); assay: SPR (Biacore 8K), antibody captured on Protein A chip, huTIGIT-His analyte, 1:1 model
T3 construct: Bought reagent; not shown: His tag
T3 sequence (looked up): T2 sequence (looked up)
Method: This test determined the antigen-antibody binding kinetics and affinity by using an SPR method. BIOCORE (GE, #Biacore 8K) was used. […] An antibody sample was diluted using an equilibration buffer to an experimental working concentration, and sealed at 2-8° C. for later use. The antigen, namely, the histidine-tagged (His-Tag) human TIGIT protein (huTIGIT, ACRO Biosystems, #TIT-H52H3), was diluted with an equilibration buffer HBS-EP (10×) (GE, #BR-1006-69). Starting at 20 nM, the antigen was diluted by 2.5-fold for 5 concentration gradients, and 2 replications were set up for zero concentration (i.e., the equilibration buffer) and the lowest concentration. The chip was regenerated with pH1.5 glycine solution (GE, #BR100354).

[5] = molecular target: T2, Human TIGIT (SPR analyte, Example 7); assay: SPR (Biacore 8K), antibody captured by anti-human chip, antigen analyte, 1:1 model; remark: listed apart in the source
Method: as §1

[6] = molecular target: T1, human TIGIT on CHOK1-huTIGIT-2A3 cells; assay: flow cytometry competition with huCD155-moFc on CHOK1-huTIGIT-2A3 cells
Method: After reaction, the 96-well U-shaped plate was resuspended with 1% BSA/PBS, centrifuged (300 g×3 min) to discard the supernatant, and washed once in such way; and Alexa488-goat anti-mouse-Fc (Jackson ImmunoResearch, #115-545-071) diluted at 1:300 was added to react for 15 min in the dark at room temperature. After reaction, the 96-well U-shaped plate was resuspended with 1% BSA/PBS, centrifuged (300 g×3 min) to discard the supernatant, washed three times in such a way, and finally resuspended with 100 μL of 1% BSA/PBS for each wall; and the fluorescence intensity of an FITC channel was detected with a flow cytometer (BD, #CantoII).

[7] = molecular target: T4, human TIGIT (hybridoma screening, Table 1) (human, UniProt Q495A1 22-141, limits assumed); assay: Biacore (SPR), hybridoma screening
T4 sequence (looked up): T2 sequence (looked up)

[8] = molecular target: Human PD-L1 (SPR analyte, Example 7) (human, UniProt Q9NZQ7 19-238, limits assumed); assay: SPR (Biacore 8K), antibody captured by anti-human chip, antigen analyte, 1:1 model
Sequence of Human PD-L1 (SPR analyte, Example 7) (Q9NZQ7 19-238 limits assumed): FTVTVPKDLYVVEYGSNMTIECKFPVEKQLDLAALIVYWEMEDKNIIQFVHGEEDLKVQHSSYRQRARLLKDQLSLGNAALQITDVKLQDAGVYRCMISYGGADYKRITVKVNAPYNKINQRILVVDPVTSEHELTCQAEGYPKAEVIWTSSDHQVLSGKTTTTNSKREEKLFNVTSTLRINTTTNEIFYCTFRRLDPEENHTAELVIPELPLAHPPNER
Method: as §1

[9] = molecular target: PD-L1 on CHO-K1-0S8-PD-L1-8D6 cells; assay: cell-based or functional assay
Sequence of PD-L1 on CHO-K1-0S8-PD-L1-8D6 cells (Q9NZQ7 whole entry): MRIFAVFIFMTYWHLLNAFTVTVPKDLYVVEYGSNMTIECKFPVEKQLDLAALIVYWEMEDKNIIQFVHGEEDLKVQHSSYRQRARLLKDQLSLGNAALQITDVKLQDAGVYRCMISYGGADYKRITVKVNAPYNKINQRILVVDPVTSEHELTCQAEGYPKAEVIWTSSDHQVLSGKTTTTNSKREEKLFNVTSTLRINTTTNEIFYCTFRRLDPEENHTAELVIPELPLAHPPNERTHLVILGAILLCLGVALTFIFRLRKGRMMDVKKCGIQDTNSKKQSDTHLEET

EC50 [1]: 0.0466 µg/mL | Kd [2]: 0.0345 nM | koff [2]: 0.000167 s⁻¹ | kon [2]: 4.82e+06 M⁻¹ s⁻¹ | EC50 (nM), IL2 secretion of Jurkat-TIGIT-22G8 cells with PHA and CD155 [3]: 5.82 nM | Kd [4]: 0.0583 nM | koff [4]: 0.000185 s⁻¹ | kon [4]: 3.17e+06 M⁻¹ s⁻¹ | Kd [5]: 0.0346 nM | koff [5]: 0.000175 s⁻¹ | kon [5]: 5.07e+06 M⁻¹ s⁻¹ | IC50 [6]: 0.0573 µg/mL
B1: HB0030 (antibody, human IgG1, kappa, V domains shown)
VH: QVQLQESGPGLVKPSETLSLTCTVSGYSITSDYAWIWIRQPPGKGLEWIGYITSSGSTYYNPSLKSRVTFSVDTSKNQFSLKLSSVTAADTATYYCARLDFGNYGGAMDYWGQGTLVTVSS
VL: DIQMTQSPSSLSASVGDRVTITCRASQHVSTAVNWYQQKPGKAPKLLIYSASYLYSGVPSRFSGSRSGTDFTLTISSLQPEDFATYYCQQHYITPYTFGQGTKLEIKR
notes: Humanized anti-TIGIT IgG1; also called 900461; TIGIT parental monoclonal antibody

Kd [7]: 0.0139 nM
B2: B3/29F6 (antibody, V domains shown)
VH: DVQLQESGPGLVKPSQSLSLTCTVTGYSITSDYAWIWIRQFPGNKVEWMGYITSSGSTSYNPSLKSRISFTRDTSKNQFFLQLTSVTTEDTATYYCARLDFGNYGGAMDYWGQGTSVTVSS
VL: DIVMTQSHKFMSTSIGDRVSITCKASQHVSTAVAWYQQKPGQSPKLLIYSASYRYTGVPDRFTGSRSGTDFTFTISSVQAEDLAVYYCQQHYITPYTFGGGTKLEIK
notes: Mouse hybridoma antibody

Kd [2]: 0.0751 nM | koff [2]: 9.11e-05 s⁻¹ | kon [2]: 1.21e+06 M⁻¹ s⁻¹ | Kd [8]: 2.79 nM | koff [8]: 0.00057 s⁻¹ | kon [8]: 204000 M⁻¹ s⁻¹ | EC50 (nM), luciferase reporter, Jurkat-NFAT-PD-1-5B8 cells with CHO-K1-0S8-PD-L1-8D6 cells [9]: 2.09 nM
B3: 900692 (bispecific antibody, human IgG1, kappa)
heavy: not shown
light: DVVMTQTPLSLSVTPGQPASISCKSSQSLANSYGNTYLSWYLHKPGQSPQLLIYGISNRFSGVPDRFSGSGSGTDFTLKISRVEAEDVGVYYCLQGTHQPPTFGQGTKLEIKRTVAAPSVFIFPPSDEQLKSGTASVVCLLNNFYPREAKVQWKVDNALQSGNSQESVTEQDSKDSTYSLSSTLTLSKADYEKHKVYACEVTHQGLSSPVTKSFNRGEC
notes: also called PD-L1-IgG-TIGIT-scFv

Kd [2]: 0.0863 nM | koff [2]: 8.03e-05 s⁻¹ | kon [2]: 930000 M⁻¹ s⁻¹ | Kd [8]: 2.27 nM | koff [8]: 0.000498 s⁻¹ | kon [8]: 219000 M⁻¹ s⁻¹ | EC50 (nM), luciferase reporter, Jurkat-NFAT-PD-1-5B8 cells with CHO-K1-0S8-PD-L1-8D6 cells [9]: 1.98 nM
B4: 900693 (bispecific antibody, human IgG1, kappa)
heavy: not shown
light: B3 light
notes: as for B3
